According to publication PMC8575462, “PP2A/B55α substrate recruitment as defined by the retinoblastoma-related protein p107” (eLife, 2021):

B1: Myc-B55α wild type [not stated] / Flag-pRB [not stated] (parent complex)
chain 1: MAGAGGGNDIQWCFSQVKGAVDDDVAEADIISTVEFNHSGELLATGDKGGRVVIFQQEQENKIQSHSRGEYNVYSTFQSHEPEFDYLKSLEIEEKINKIRWLPQKNAAQFLLSTNDKTIKLWKISERDKRPEGYNLKEEDGRYRDPTTVTTLRVPVFRPMDLMVEASPRRIFANAHTYHINSISINSDYETYLSADDLRINLWHLEITDRSFNIVDIKPANMEELTEVITAAEFHPNSCNTFVYSSSKGTIRLCDMRASALCDRHSKLFEEPEDPSNRSFFSEIISSISDVKFSHSGRYMMTRDYLSVKIWDLNMENRPVETYQVHEYLRSKLCSLYENDCIFDKFECCWNGSDSVVMTGSYNNFFRMFDRNTKRDITLEASRENNKPRTVLKPRKVCASGKRKKDEISVDSLDFNKKILHTAWHPKENIIAVATTNNLYIFQDKVN
chain 2: MPPKTPRKTAATAAAAAAEPPAPPPPPPPEEDPEQDSGPEDLPLVRLEFEETEEPDFTALCQKLKIPDHVRERAWLTWEKVSSVDGVLGGYIQKKKELWGICIFIAAVDLDEMSFTFTELQKNIEISVHKFFNLLKEIDTSTKVDNAMSRLLKKYDVLFALFSKLERTCELIYLTQPSSSISTEINSALVLKVSWITFLLAKGEVLQMEDDLVISFQLMLCVLDYFIKLSPPMLLKEPYKTAVIPINGSPRTPRRGQNRSARIAKQLENDTRIIEVLCKEHECNIDEVKNVYFKNFIPFMNSLGLVTSNGLPEVENLSKRYEEIYLKNKDLDARLFLDHDKTLQTDSIDSFETQRTPRKSNLDEEVNVIPPHTPVRTVMNTIQQLMMILNSASDQPSENLISYFNNCTVNPKESILKRVKDIGYIFKEKFAKAVGQGCVEIGSQRYKLGVRLYYRVMESMLKSEEERLSIQNFSKLLNDNIFHMSLLACALEVVMATYSRSTSQNLDSGTDLSFPWILNVLNLKAFDFYKVIESFIKAEGNLTREMIKHLERCEHRIMESLAWLSDSPLFDLIKQSKDREGPTDHLESACPLNLPLQNNHTAADMYLSPVRSPKKKGSTTRVNSTANAETQATSAFQTQKPLKSTSLSLFYKKVYRLAYLRLNTLCERLLSEHPELEHIIWTLFQHTLQNEYELMRDRHLDQIMMCSMYGICKVKNIDLKFKIIVTAYKDLPHAVQETFKRVLIKEEEYDSIIVFYNSVFMQRLKTNILQYASTRPPTLSPIPHIPRSPYKFPSSPLRIPGGNIYISPLKSPYKISEGLPTPTKMTPRSRILVSIGESFGTSEKFQKINQMVCNSDRVLKRSAEGSNPPKPLKKLRFDIEGSDEADGSKHLPGESKFQQKLAEMTSTRTRMQKQKMNDSMDTSNKEEK

Variants of: B1
Experiment: co-immunoprecipitation (anti-Myc IP), western blot quantitation; 293T cells, co-transfected; read off a plot

ratio to parent | Variant
~1.5 | chain 1 S287A
~0.7 | chain 1 T436A
~0.85 | chain 1 V228A
~1.5 | chain 1 S247A
~1.1 | chain 1 N181A

More lines, now with the values behind:

Variant | ratio to parent
chain 1 L225A | ~0.2
chain 1 D116A | ~0.35
chain 1 F280A | ~0.5
chain 1 K98A | ~0.65
